# Assay results published in patent publication US20230416343A1 (SORRENTO THERAPEUTICS, published 2023).
# “And” between values parts separate entries of the source, which are not always exact repeats. Equal values may be shown once. Read-outs that look alike come from different tables or passages of the source.
# B1: S1D7270LALA antibody (STI-2020) (antibody, V domains shown)
# VH: EVQLVESGGGLIQPGGSLRLSCAASGFTVSSNYMSWVRQAPGKGLEWVSIIYPGGSTEYADSVKGRFTISRDNSRNTLYLQMNSLRAEDTAVYYCARELGYYGMDVWGQGTTVTVSS
# VL: DIQMTQSPSSVSASVGDRVTITCRASQGISTWLVWYQQKPGKAPNLLIYGASSLQSGVPSRFSGSGSGTDFTLTISSLQPEDFATYYCQQANAYPYTFGQGTKLEIK
# Legend:
# [1] = biological target: SARS-CoV-2 variant spike protein F490S on HEK293 cells (SARS-CoV-2, UniProt P0DTC2 14-1273)
# [2] = biological target: T1, SARS-CoV-2 D614G mutant spike protein expressed on HEK293 cells (SARS-CoV-2, UniProt P0DTC2 14-1273)
# [3] = biological target: SARS-CoV-2 variant spike protein E484K on HEK293 cells (SARS-CoV-2, UniProt P0DTC2 14-1273)
# [4] = biological target: SARS-CoV-2 variant spike protein S494P on HEK293 cells (SARS-CoV-2, UniProt P0DTC2 14-1273)
# [5] = biological target: SARS-CoV-2 variant spike protein triple mutant K417N, E484K, and N501Y on HEK293 cells (SARS-CoV-2, UniProt P0DTC2 14-1273)
# [6] = biological target: S protein of live SARS-CoV-2 strain 2020001 (spike protein having the D614G mutation) (SARS-CoV-2, UniProt P0DTC2 14-1273); assay: cell-based or functional assay
# [7] = biological target: S protein of live SARS-CoV-2 Alpha variant virus (SARS-CoV-2, UniProt P0DTC2 14-1273); assay: cell-based or functional assay
# [8] = biological target: T1, SARS-CoV-2 D614G mutant spike protein …; remark: listed apart in the source
# [9] = biological target: SARS-CoV-2 spike protein expressed on HEK293 cells (SARS-CoV-2, UniProt P0DTC2 14-1273)
binder,measurement,setting,value
B1,EC50,[1],48 µg/mL
same,EC50,[2],130 µg/mL
same,EC50,[3],140 µg/mL
same,EC50,[4],131 µg/mL
same,EC50,[5],> 10000 µg/mL
same,"IC50, inhibition of cytopathic effect (CPE) on Vero E6 cells, live virus",[6],0.055 µg/mL
same,"IC50, plaque reduction neutralization test on Vero E6 cells, live virus",[7],0.00908 µg/mL and 0.0164 µg/mL
same,EC50,[8],0.13 µg/mL
same,EC50,[9],0.12 µg/mL
